Data published in paper PMC3142331 (Molecular cell, 2011).
Square brackets hold non-standard residues; d marks the D form. Ends that are not written are not given here. fluorescein = fluorescein label (fluorescent) on the peptide N-terminus; pS = N[C@@H](COP(=O)(O)O)C(=O)O

T1: fluorescein labeled phosphorylated CTD peptide (Fluor-S2P3T4S5PP6S7Y1S2PP3T4S5)
T1 peptide: fluorescein-SPT[pS]PSY[pS]PTS


Legend:
[1] = biological target: tetraheptad CTD-Ser5-PO4 peptide (phosphorylated at Ser5 (CTD-Ser5-PO4)); experiment: cell-based or functional assay
[2] = biological target: T1, fluorescein labeled phosphorylated CTD …; experiment: fluorescence polarisation

| Binder | fold stimulation of guanylylation by CTD Ser5-PO4 [1] | further results |
| --- | --- | --- |
| Mce R330A (domain or fragment) not shown | 2.1 fold |  |
| Mce-K294A (domain or fragment) not shown |  | fold reduction of affinity against wild-type Mce [2]: ~1.8 fold |
| Mce C383Y (domain or fragment) not shown |  | fold decrease in affinity against wild-type Mce [2]: 1.9 fold |
| Mce-C375R (domain or fragment) not shown |  | fold stimulation of guanylylation in the presence of CTD Ser5-PO4 [1]: 5.9 fold |

The next lines start with results.

| fold stimulation of guanylylation by CTD Ser5-PO4 [1] | Binder | further results |
| --- | --- | --- |
| 1.9 fold | Mce R330A/K331A (domain or fragment) not shown |  |
| 1.6 fold | Mce R330A/K331A/R386A (domain or fragment) not shown |  |
